Like-named read-outs stand apart in the source and are kept apart here.
Tests used:
[1] = biological target: EA.hy926 cell surface associated TFPI (human) (UniProt P10646); test: flow cytometry on EA.hy926 cells, APC anti-human IgG secondary, median fluorescence intensity
[2] = biological target: EA.hy926 cell surface associated TFPI (human) (UniProt P10646)
[3] = biological target: EA.hy926 cell surface associated TFPI (human) (UniProt P10646); remark: listed apart in the source

B1: mAb 2021 (antibody, human IgG4 S228P, kappa, V domains shown)
VH: EVQLVESGGGLVKPGGSLRLSCAASGFTFSNYAMSWVRQTPEKRLEWVATISRSGSYSYFPDSVQGRFTISRDNAKNSLYLQMNSLRAEDTAVYYCARLGGYDEGDAMDSWGQGTTVTVSS
VL: DIVMTQTPLSLSVTPGQPASISCKSSQSLLESDGKTYLNWYLQKPGQSPQLLIYLVSILDSGVPDRFSGSGSGTDFTLKISRVEAEDVGVYYCLQATHFPQTFGGGTKVEIKR
[1]
  EC50: 0.11 nM
[2]
  EC50 (read off the curve): 1 nM

B2: Fab 0094 (Fab fragment of mAb 2007) (Fab, V domains shown)
VH: EVQLVESGGGLVKPGGSLRLSCAASGFTFSNYAMSWVRQAPGKGLEWVSTISRSGSYSYYPDSVKGRFTISRDNAKNSLYLQMNSLRAEDTAVYYCARLGGYDEGDAMDSWGQGTTVTVSS
VL: DIVMTQTPLSLSVTPGQPASISCKSSQSLLESDGKTYLNWYLQKPGQSPQLLIYLVSILDSGVPDRFSGSGSGTDFTLKISRVEAEDVGVYYCLQATHFPQTFGGGTKVEIKR
[1]
  EC50: 3.8 nM

B3: Fab 0088 (Fab fragment of mAb 2021) (Fab, V domains shown)
VH: EVQLVESGGGLVKPGGSLRLSCAASGFTFSNYAMSWVRQTPEKRLEWVATISRSGSYSYFPDSVQGRFTISRDNAKNSLYLQMNSLRAEDTAVYYCARLGGYDEGDAMDSWGQGTTVTVSS
VL: DIVMTQTPLSLSVTPGQPASISCKSSQSLLESDGKTYLNWYLQKPGQSPQLLIYLVSILDSGVPDRFSGSGSGTDFTLKISRVEAEDVGVYYCLQATHFPQTFGGGTKVEIKR
[1]
  EC50: 0.31 nM

B4: Fab 0313 (Fab fragment of mAb 2000) (Fab, V domains shown)
VH: EVQLVESGGGLVKPGGSLRLSCAASGFTFSNYAMSWVRQAPGKGLEWVSTISRSGSYSYYADSVKGRFTISRDNAKNSLYLQMNSLRAEDTAVYYCARLGGYDEGDAMDSWGQGTTVTVSS
VL: DIVMTQTPLSLSVTPGQPASISCKSSQSLLESDGKTYLNWYLQKPGQSPQLLIYLVSILDSGVPDRFSGSGSGTDFTLKISRVEAEDVGVYYCLQATHFPQTFGGGTKVEIKR
[1]
  EC50: 25.9 nM

B5: Fab 0088-Fab 0089 conjugate 9002 (bispecific antibody)
heavy 1: EVQLVESGGGLVKPGGSLRLSCAASGFTFSNYAMSWVRQTPEKRLEWVATISRSGSYSYFPDSVQGRFTISRDNAKNSLYLQMNSLRAEDTAVYYCARLGGYDEGDAMDSWGQGTTVTVSSASTKGPSVFPLAPCSRSTSESTAALGCLVKDYFPEPVTVSWNSGALTSGVHTFPAVLQSSGLYSLSSVVTVPSSSLGTKTYTCNVDHKPSNTKVDKRVESKYGPPC
light 1: DIVMTQTPLSLSVTPGQPASISCKSSQSLLESDGKTYLNWYLQKPGQSPQLLIYLVSILDSGVPDRFSGSGSGTDFTLKISRVEAEDVGVYYCLQATHFPQTFGGGTKVEIKRTVAAPSVFIFPPSDEQLKSGTASVVCLLNNFYPREAKVQWKVDNALQSGNSQESVTEQDSKDSTYSLSSTLTLSKADYEKHKVYACEVTHQGLSSPVTKSFNRGEC
heavy 2: QVQLQQSGAELVKPGASVKLSCKASGYTFISYYMYWVKQRPGQGLEWIGEINPSNGDTNLNEKFKSKATLTVDKSSSTVYMQLSSLTSEDSAVYYCTRWDRFDGFVYWGQGTLVTVSAASTKGPSVFPLAPCSRSTSESTAALGCLVKDYFPEPVTVSWNSGALTSGVHTFPAVLQSSGLYSLSSVVTVPSSSLGTKTYTCNVDHKPSNTKVDKRVESKYGPPC
light 2: ETTVTQSPASLSMAIGGKVTIRCIISTNIDDDINWYQQKPGEPPKLLISEGNTLRPGVPSRFSSSGYGTDFVFTIENMLSEDVADYYCLQSDDLPYTFGGGTKLEIKRTVAAPSVFIFPPSDEQLKSGTASVVCLLNNFYPREAKVQWKVDNALQSGNSQESVTEQDSKDSTYSLSSTLTLSKADYEKHKVYACEVTHQGLSSPVTKSFNRGEC
modifications: C-terminal cysteine coupled through the bis-maleimide linker to the Fab 0088 heavy chain; C-terminal cysteine coupled through 1,16-N,N'-bis(maleimido)-4,13-diaza-7,10-dioxa-3,14-dioxohexadecane to the C-terminal cysteine of the Fab 0089 heavy chain
[1]
  EC50: 0.33 nM
[3]
  EC50 (read off the curve): 2 nM

B6: Fab 0094-Fab 0089 conjugate 9004 (bispecific antibody)
heavy 1: EVQLVESGGGLVKPGGSLRLSCAASGFTFSNYAMSWVRQAPGKGLEWVSTISRSGSYSYYPDSVKGRFTISRDNAKNSLYLQMNSLRAEDTAVYYCARLGGYDEGDAMDSWGQGTTVTVSSASTKGPSVFPLAPCSRSTSESTAALGCLVKDYFPEPVTVSWNSGALTSGVHTFPAVLQSSGLYSLSSVVTVPSSSLGTKTYTCNVDHKPSNTKVDKRVESKYGPPC
light 1: DIVMTQTPLSLSVTPGQPASISCKSSQSLLESDGKTYLNWYLQKPGQSPQLLIYLVSILDSGVPDRFSGSGSGTDFTLKISRVEAEDVGVYYCLQATHFPQTFGGGTKVEIKRTVAAPSVFIFPPSDEQLKSGTASVVCLLNNFYPREAKVQWKVDNALQSGNSQESVTEQDSKDSTYSLSSTLTLSKADYEKHKVYACEVTHQGLSSPVTKSFNRGEC
heavy 2: QVQLQQSGAELVKPGASVKLSCKASGYTFISYYMYWVKQRPGQGLEWIGEINPSNGDTNLNEKFKSKATLTVDKSSSTVYMQLSSLTSEDSAVYYCTRWDRFDGFVYWGQGTLVTVSAASTKGPSVFPLAPCSRSTSESTAALGCLVKDYFPEPVTVSWNSGALTSGVHTFPAVLQSSGLYSLSSVVTVPSSSLGTKTYTCNVDHKPSNTKVDKRVESKYGPPC
light 2: ETTVTQSPASLSMAIGGKVTIRCIISTNIDDDINWYQQKPGEPPKLLISEGNTLRPGVPSRFSSSGYGTDFVFTIENMLSEDVADYYCLQSDDLPYTFGGGTKLEIKRTVAAPSVFIFPPSDEQLKSGTASVVCLLNNFYPREAKVQWKVDNALQSGNSQESVTEQDSKDSTYSLSSTLTLSKADYEKHKVYACEVTHQGLSSPVTKSFNRGEC
modifications: C-terminal cysteine coupled through the bis-maleimide linker to the Fab 0094 heavy chain; C-terminal cysteine coupled through 1,16-N,N'-bis(maleimido)-4,13-diaza-7,10-dioxa-3,14-dioxohexadecane to the C-terminal cysteine of the Fab 0089 heavy chain
[1]
  EC50: 6.9 nM
